Test results reported in the supplement of paper PMC10126150.
± gives the standard deviation of the averaged measurements.

Tested on: ATP
Experiment: switch fluorescence ratio, 500 uM ATP over buffer (Cy3 cluster intensity, sum of 5 cycles each) (fold (ratio)); higher = stronger signal-on switching upon ATP binding; sequences stand for … in TCGTCGGCAGCGTCAGATGTGTATAAGAGACAGTTTTTTTTTTTTTTTTTTTTTTTTT…TC
Conditions: aptamer strand: ATP DNA aptamer (quencher-CACCTGGGGGAGTATTGCGGAGGAAGG + anchor), 100 nM annealed; ATP concentration: 500 uM
How it was run: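 Per cluster, summed Cy3 intensity from the target cycles was divided by that from the buffer cycles to give the fluorescence ratio, then averaged per switch-domain sequence. Clusters outside 100-1000 RFU were excluded. The Cy3-labelled switching-strand clusters, on a modified Illumina MiSeq flow-cell, were annealed to 100 nM quencher-labelled ATP aptamer and imaged in selection buffer, then after 15 min with 500 uM ATP at 22 °C, for five cycles with NaOH stripping and re-annealing between them.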
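Note: ATP exposure 15 min at 22 °C before imaging.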

Sequence | switch fluorescence ratio
ATTCTATCGT | 1.01 ± 0.015
ATTCTCATTG | 0.982 ± 0.038
ATTCTGGTGC | 1.12 ± 0.025
ATTCTTATTT | 0.998 ± 0.028
ATTCTTTGG | 0.9676 ± 0.0024
ATTGAAAGAG | 1.21 ± 0.28
ATTGAAAGGC | 1.29 ± 0.42
ATTGAAATTT | 1.05 ± 0.093
ATTGAACGGG | 1.02 ± 0.016
ATTGACTTTT | 1 ± 0.025
ATTGAGATGC | 0.938 ± 0.014
ATTGAGCCAG | 1.03 ± 0.023
ATTGAGGAGG | 1.02 ± 0.023
ATTGATACTA | 1.03 ± 0.021
ATTGATATCC | 0.987 ± 0.043
ATTGATGTTT | 1.01 ± 0.024
ATTGATTGCG | 0.989 ± 0.013
ATTGCAATGT | 1.036 ± 0.0055
ATTGCCCGTC | 0.992 ± 0.038
ATTGCGGTTT | 0.991 ± 0.032
ATTGCTCTTT | 1.0037 ± 0.00058
ATTGCTTTTT | 0.9834 ± 0.0066
ATTGGAACGC | 1.03 ± 0.012
ATTGGACTAC | 1.07 ± 0.03
ATTGGAGTTA | 0.999 ± 0.012

Sequence | switch fluorescence ratio
ATTGGATTCA | 1.022 ± 0.0023
ATTGGCAGTG | 1 ± 0.021
ATTGGCATCT | 0.9925 ± 0.0079
ATTGGCCATC | 0.997 ± 0.0048
ATTGGCCCAT | 0.9642 ± 0.0017
ATTGGCCGCC | 0.991 ± 0.042
ATTGGGAATA | 0.986 ± 0.029
ATTGGGAGTA | 0.988 ± 0.0099
ATTGGGATCC | 1.02 ± 0.029
ATTGGGCAAT | 1.054 ± 0.0023
ATTGGGCTGT | 0.993 ± 0.016
ATTGGGTGTG | 0.987 ± 0.027
ATTGGGTTGG | 0.998 ± 0.019
ATTGGTGCGT | 1.0357 ± 0.0007
ATTGGTGGGG | 0.982 ± 0.033
ATTGTAAAGC | 0.9935 ± 0.0083
ATTGTAGGAG | 0.9966 ± 0.0058
ATTGTCGACT | 0.9681 ± 0.0045
ATTGTCGGCT | 1.05 ± 0.18
ATTGTGAAAT | 0.999 ± 0.0025
ATTGTGCAGG | 0.998 ± 0.0025
ATTGTGCCTG | 1.083 ± 0.0093
ATTGTGCGGC | 1.01 ± 0.027
ATTGTGGGGA | 0.985 ± 0.048
ATTGTGTTCC | 1.05 ± 0.0057

Sequence | switch fluorescence ratio
ATTGTTAATG | 0.98 ± 0.046
ATTGTTATCT | 1 ± 0.013
ATTGTTCCGT | 1.02 ± 0.021
ATTGTTGGTG | 0.986 ± 0.024
ATTGTTGGTT | 0.974 ± 0.019
ATTGTTGTGT | 0.9992 ± 0.0099
ATTGTTTCAG | 0.976 ± 0.02
ATTGTTTGCG | 0.966 ± 0.035
ATTGTTTGTC | 0.996 ± 0.064
ATTTAAATTG | 1.02 ± 0.052
ATTTAAGAAT | 1.022 ± 0.0061
ATTTAAGGAC | 1.04 ± 0.032
ATTTAATAAT | 0.985 ± 0.018
ATTTACACGC | 1.02 ± 0.02
ATTTACCAGG | 1.18 ± 0.26
ATTTACTAGA | 1.004 ± 0.0042
ATTTACTTCT | 1.04 ± 0.015
ATTTAGACTT | 1.039 ± 0.01
ATTTAGAGGT | 0.965 ± 0.043
ATTTAGCCTA | 0.9758 ± 0.0079
ATTTAGGTCA | 0.983 ± 0.011
ATTTAGTACA | 0.973 ± 0.011
ATTTAGTCGA | 0.9519 ± 0.001
ATTTAGTTGT | 1.03 ± 0.03
ATTTATACGC | 1.06 ± 0.038

Sequence | switch fluorescence ratio
ATTTATACGG | 1.02 ± 0.015
ATTTATATTG | 0.989 ± 0.05
ATTTATGATA | 0.99 ± 0.008
ATTTATGGTG | 0.973 ± 0.031
ATTTATGTGG | 0.998 ± 0.02
ATTTATGTTC | 0.994 ± 0.033
ATTTATTTTA | 1.01 ± 0.012
ATTTCAATTA | 1.01 ± 0.065
ATTTCACAAT | 0.9798 ± 0.0028
ATTTCAGTCT | 0.977 ± 0.051
ATTTCATGG | 0.97 ± 0.057
ATTTCCCGAT | 0.979 ± 0.012
ATTTCTAGGA | 0.987 ± 0.015
ATTTCTATCC | 1.09 ± 0.12
ATTTCTGGGT | 0.9885 ± 0.0082
ATTTCTTGG | 0.958 ± 0.031
ATTTGAAGTT | 0.975 ± 0.043
ATTTGACGGG | 1.03 ± 0.047
ATTTGACTTT | 1.04 ± 0.031
ATTTGAGTGC | 0.966 ± 0.002
ATTTGAGTTA | 1 ± 0.056
ATTTGCGGGC | 1.07 ± 0.11
ATTTGGATGG | 0.985 ± 0.023
ATTTGGCTGG | 0.986 ± 0.015
ATTTGGGCCA | 1.02 ± 0.022

Sequence | switch fluorescence ratio
ATTTGGGGTC | 0.9644 ± 0.0056
ATTTGGGGTT | 0.997 ± 0.031
ATTTGGTAGG | 1 ± 0.012
ATTTGGTGAG | 0.983 ± 0.03
ATTTGGTGCG | 1.01 ± 0.036
ATTTGGTGTA | 0.968 ± 0.0098
ATTTGTAAGC | 0.9909 ± 0.0068
ATTTGTATGC | 1 ± 0.051
ATTTGTGGAC | 0.973 ± 0.037
ATTTGTGGGG | 1.01 ± 0.065
ATTTGTGGTG | 1.01 ± 0.023
ATTTGTGTA | 0.992 ± 0.012
ATTTGTGTGT | 0.967 ± 0.036
ATTTGTGTTT | 0.9931 ± 0.0027
ATTTTAATAT | 0.987 ± 0.03
ATTTTACACC | 1.07 ± 0.013
ATTTTACGTA | 1.143 ± 0.0025
ATTTTACGTG | 1 ± 0.016
ATTTTACTAA | 1.05 ± 0.021
ATTTTAGGCA | 0.996 ± 0.039
ATTTTAGGCC | 1.1 ± 0.06
ATTTTAGTTA | 1 ± 0.038
ATTTTATCAG | 1.02 ± 0.018
ATTTTATTAC | 1.04 ± 0.028
ATTTTCACAG | 1.03 ± 0.077

Sequence | switch fluorescence ratio
ATTTTCAGAT | 1.003 ± 0.0045
ATTTTCAGGG | 0.998 ± 0.067
ATTTTCGGTG | 1.01 ± 0.024
ATTTTGTAAT | 1 ± 0.019
ATTTTGTGAG | 0.969 ± 0.031
ATTTTGTGTA | 1.005 ± 0.004
ATTTTGTGTG | 0.989 ± 0.011
ATTTTGTTCT | 0.993 ± 0.031
ATTTTGTTGG | 1.11 ± 0.2
ATTTTTAGT | 1 ± 0.016
ATTTTTATTC | 0.991 ± 0.03
ATTTTTCCCG | 1.07 ± 0.059
ATTTTTCGAT | 1 ± 0.026
ATTTTTCTCG | 0.96 ± 0.041
ATTTTTGGG | 1.03 ± 0.035
ATTTTTGGTG | 1.06 ± 0.064
ATTTTTTGGG | 0.9597 ± 0.0069
ATTTTTTTCT | 1.04 ± 0.04
ATTTTTTTGT | 1 ± 0.026
CAAAAAAAAG | 1.03 ± 0.023
CAAAAAATTA | 1.01 ± 0.031
CAAAAAGCGT | 0.9786 ± 0.0056
CAAAAAGTTG | 1.02 ± 0.093
CAAAAATTGG | 1 ± 0.041
CAAAAGAGTG | 0.999 ± 0.018

Sequence | switch fluorescence ratio
CAAAAGCCTA | 0.974 ± 0.053
CAAAAGGGGA | 0.984 ± 0.04
CAAAAGTTGT | 0.992 ± 0.043
CAAAATATAT | 1.06 ± 0.042
CAAAATTGCA | 1.02 ± 0.016
CAAAATTTGC | 0.9841 ± 0.0061
CAAACGGGGG | 0.983 ± 0.042
CAAACGGGGT | 1.01 ± 0.024
CAAACTGGCA | 1.05 ± 0.045
CAAAGACACA | 0.985 ± 0.012
CAAAGGCGGA | 0.991 ± 0.014
CAAAGGGGCA | 1.046 ± 0.0052
CAAAGGGGGA | 1 ± 0.033
CAAAGGGGGG | 1.13 ± 0.38
CAAAGTAGGG | 0.991 ± 0.032
CAAAGTGGTG | 0.97 ± 0.053
CAAATAAATT | 0.989 ± 0.029
CAAATCGTTG | 0.9786 ± 0.0024
CAAATGAAAG | 1.004 ± 0.0058
CAAATGATTT | 0.985 ± 0.021
CAAATGTCAA | 0.987 ± 0.015
CAAATGTTTG | 0.998 ± 0.02
CAAATTAGGG | 0.971 ± 0.036
CAAATTGCAG | 0.967 ± 0.026
CAACACGGCA | 1.11 ± 0.026

Sequence | switch fluorescence ratio
CAACCGCGTA | 2.36 ± 0.1
CAACCGGGAA | 1.1 ± 0.021
CAACCTGCGA | 1.4175 ± 0.0011
CAACGCATTT | 2.36 ± 0.44
CAACGGGCCA | 1.01 ± 0.029
CAACGGGGGG | 0.998 ± 0.029
CAACGTATTT | 1.113 ± 0.002
CAACTAAGTT | 0.988 ± 0.036
CAACTAGTGG | 0.978 ± 0.037
CAACTTGGGA | 1.05 ± 0.015
CAAGAACGTT | 0.997 ± 0.018
CAAGAATGCG | 1 ± 0.034
CAAGAATTTG | 0.9816 ± 0.0097
CAAGAGGGTT | 0.99 ± 0.032
CAAGAGTGTG | 0.98 ± 0.032
CAAGATTCTT | 0.975 ± 0.056
CAAGATTGCC | 1 ± 0.034
CAAGCAAATT | 1.042 ± 0.0039
CAAGCAGGCA | 0.9935 ± 0.0067
CAAGCATCGC | 0.94962 ± 2.2e-05
CAAGCGGGGG | 1.01 ± 0.05
CAAGCTATCA | 1.026 ± 0.002
CAAGGACATA | 1.07 ± 0.038
CAAGGACGTT | 0.997 ± 0.02
CAAGGACTGG | 0.997 ± 0.032
